Data published in patent US20240116985A1, “STAPLED PEPTIDES AND METHODS THEREOF” (priority 2020, published 2024).
Values joined by “and” are separate entries in the source; they are usually repeats but may differ in a detail not shown here. Identical values can stand only once. Starred links: 1 amine or outer side, 2 acyl side, 3 side chain; linkers in the order of their positions; H or OH if unused. Positions of bridges follow the written chain, without caps; N, C: chain ends. Non-standard residues stand in square brackets, D forms with d. PyrS2 = (S)-3-amino-1-((pent-4-en-1-yloxy)carbonyl)pyrrolidine-3-carboxylic acid, C=CCCCOC(=O)N1CC[C@@](N[*:1])(C(=O)[*:2])C1; B5 = 2-amino-2-(pent-4-en-1-yl)hept-6-enoic acid, C=CCCCC(CCCC=C)(N[*:1])C(=O)[*:2]; Bta = N[C@@H](Cc1csc2ccccc12)C(=O)O; αAllylPro = C=CC[C@@]1(C(=O)O)CCCN1; tBuAla = CC(C)(C)C[C@H](N)C(=O)O; 3Thi = N[C@@H](Cc1ccsc1)C(=O)O

What was measured:
[1] = target: beta-catenin-Halo NanoBRET construct (Homo sapiens (Human)) (UniProt P35222); assay: NanoBRET, Bcat-Halo/TCF4-Luc in HEK293 cells; peptide 10 uM; replicate 1; competitor TCF4-Luc
beta-catenin-Halo NanoBRET construct (Homo sapiens (Human)), sequence (P35222 whole entry): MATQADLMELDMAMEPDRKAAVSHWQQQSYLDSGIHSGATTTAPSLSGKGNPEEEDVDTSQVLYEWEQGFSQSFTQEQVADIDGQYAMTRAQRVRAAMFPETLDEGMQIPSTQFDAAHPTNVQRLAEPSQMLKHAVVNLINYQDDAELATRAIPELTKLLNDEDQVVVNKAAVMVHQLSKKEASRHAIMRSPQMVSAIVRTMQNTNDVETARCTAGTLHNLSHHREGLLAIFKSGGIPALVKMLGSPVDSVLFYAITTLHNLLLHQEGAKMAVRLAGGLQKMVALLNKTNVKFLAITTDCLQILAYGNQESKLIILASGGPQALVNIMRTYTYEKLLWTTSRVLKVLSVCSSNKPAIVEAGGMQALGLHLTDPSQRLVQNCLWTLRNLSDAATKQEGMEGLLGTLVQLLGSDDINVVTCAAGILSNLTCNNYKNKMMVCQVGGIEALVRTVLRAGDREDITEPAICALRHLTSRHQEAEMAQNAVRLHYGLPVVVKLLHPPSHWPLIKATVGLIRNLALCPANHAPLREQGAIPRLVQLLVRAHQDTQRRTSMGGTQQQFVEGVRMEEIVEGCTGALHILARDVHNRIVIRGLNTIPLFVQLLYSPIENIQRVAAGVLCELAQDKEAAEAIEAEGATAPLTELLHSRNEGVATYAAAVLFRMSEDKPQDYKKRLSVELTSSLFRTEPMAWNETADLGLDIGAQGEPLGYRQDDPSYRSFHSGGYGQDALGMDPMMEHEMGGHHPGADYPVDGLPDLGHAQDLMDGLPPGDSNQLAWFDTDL

[2] = target: beta-catenin-Halo (NanoBRET construct expressed in HEK293 cells) (Homo sapiens (Human)) (UniProt P35222); assay: NanoBRET, HEK293 cells with Bcat-Halo and TCF4-Luc; plate row E (2.5 uM by plate map), plate column 7
beta-catenin-Halo (NanoBRET construct expressed in HEK293 cells) (Homo sapiens (Human)), sequence (P35222 whole entry): as above

[3] = target: beta-catenin-Halo (NanoBRET construct expressed in HEK293 cells) (Homo sapiens (Human)) (UniProt P35222); assay: NanoBRET, HEK293 cells with Bcat-Halo and TCF4-Luc; plate row D (5 uM by plate map), plate column 7
[4] = target: beta-catenin-Halo (NanoBRET construct expressed in HEK293 cells) (Homo sapiens (Human)) (UniProt P35222); assay: NanoBRET, HEK293 cells with Bcat-Halo and TCF4-Luc; plate row D (5 uM by plate map), plate column 6
[5] = target: beta-catenin-Halo (NanoBRET construct expressed in HEK293 cells) (Homo sapiens (Human)) (UniProt P35222); assay: NanoBRET, HEK293 cells with Bcat-Halo and TCF4-Luc; plate row C (10 uM by plate map), plate column 5
[6] = target: beta-catenin-Halo NanoBRET construct (Homo sapiens (Human)) (UniProt P35222); assay: NanoBRET, Bcat-Halo/TCF4-Luc in HEK293 cells; peptide 2.5 uM; replicate 3; competitor TCF4-Luc
[7] = target: beta-catenin-Halo (NanoBRET construct expressed in HEK293 cells) (Homo sapiens (Human)) (UniProt P35222); assay: NanoBRET, HEK293 cells with Bcat-Halo and TCF4-Luc; plate row F (1.25 uM by plate map), plate column 5
[8] = target: beta-catenin-Halo (NanoBRET construct expressed in HEK293 cells) (Homo sapiens (Human)) (UniProt P35222); assay: NanoBRET, HEK293 cells with Bcat-Halo and TCF4-Luc; plate row E (2.5 uM by plate map), plate column 6
[9] = target: beta-catenin-Halo NanoBRET construct (Homo sapiens (Human)) (UniProt P35222); assay: NanoBRET, Bcat-Halo/TCF4-Luc in HEK293 cells; peptide 1.25 uM; replicate 1; competitor TCF4-Luc
[10] = target: beta-catenin-Halo NanoBRET construct (Homo sapiens (Human)) (UniProt P35222); assay: NanoBRET raw acceptor reading, Bcat-Halo/TCF4-Luc in HEK293 cells; plate row D (5 uM by plate map); competitor TCF4-Luc
[11] = target: beta-catenin-Halo NanoBRET construct (Homo sapiens (Human)) (UniProt P35222); assay: NanoBRET, Bcat-Halo/TCF4-Luc in HEK293 cells; peptide 5 uM; replicate 1; competitor TCF4-Luc
[12] = target: beta-catenin-Halo NanoBRET construct (Homo sapiens (Human)) (UniProt P35222); assay: NanoBRET, Bcat-Halo/TCF4-Luc in HEK293 cells; peptide 1.25 uM; replicate 2; competitor TCF4-Luc
[13] = target: beta-catenin-Halo (NanoBRET construct expressed in HEK293 cells) (Homo sapiens (Human)) (UniProt P35222); assay: NanoBRET, HEK293 cells with Bcat-Halo and TCF4-Luc; plate row C (10 uM by plate map), plate column 7
[14] = target: beta-catenin-Halo (NanoBRET construct expressed in HEK293 cells) (Homo sapiens (Human)) (UniProt P35222); assay: NanoBRET, HEK293 cells with Bcat-Halo and TCF4-Luc; plate row F (1.25 uM by plate map), plate column 6
[15] = target: beta-catenin-Halo (NanoBRET construct expressed in HEK293 cells) (Homo sapiens (Human)) (UniProt P35222); assay: NanoBRET, HEK293 cells with Bcat-Halo and TCF4-Luc; plate row B (20 uM by plate map), plate column 5
[16] = target: beta-catenin-Halo NanoBRET construct (Homo sapiens (Human)) (UniProt P35222); assay: NanoBRET raw acceptor reading, Bcat-Halo/TCF4-Luc in HEK293 cells; plate row E (2.5 uM by plate map); competitor TCF4-Luc
[17] = target: beta-catenin-Halo (NanoBRET construct expressed in HEK293 cells) (Homo sapiens (Human)) (UniProt P35222); assay: NanoBRET, HEK293 cells with Bcat-Halo and TCF4-Luc; plate row G (0.625 uM by plate map), plate column 6
[18] = target: beta-catenin-Halo NanoBRET construct (Homo sapiens (Human)) (UniProt P35222); assay: NanoBRET raw acceptor reading, Bcat-Halo/TCF4-Luc in HEK293 cells; plate row C (10 uM by plate map); competitor TCF4-Luc
[19] = target: beta-catenin-Halo (NanoBRET construct expressed in HEK293 cells) (Homo sapiens (Human)) (UniProt P35222); assay: NanoBRET, HEK293 cells with Bcat-Halo and TCF4-Luc; plate row E (2.5 uM by plate map), plate column 5
[20] = target: beta-catenin-Halo (NanoBRET construct expressed in HEK293 cells) (Homo sapiens (Human)) (UniProt P35222); assay: NanoBRET, HEK293 cells with Bcat-Halo and TCF4-Luc; plate row D (5 uM by plate map), plate column 5
[21] = target: beta-catenin-Halo (NanoBRET construct expressed in HEK293 cells) (Homo sapiens (Human)) (UniProt P35222); assay: NanoBRET, HEK293 cells with Bcat-Halo and TCF4-Luc; plate row B (20 uM by plate map), plate column 6
[22] = target: beta-catenin-Halo NanoBRET construct (Homo sapiens (Human)) (UniProt P35222); assay: NanoBRET raw acceptor reading, Bcat-Halo/TCF4-Luc in HEK293 cells; plate row B (20 uM by plate map); competitor TCF4-Luc
[23] = target: beta-catenin-Halo NanoBRET construct (Homo sapiens (Human)) (UniProt P35222); assay: NanoBRET, Bcat-Halo/TCF4-Luc in HEK293 cells; peptide 2.5 uM; replicate 2; competitor TCF4-Luc
[24] = target: beta-catenin-Halo NanoBRET construct (Homo sapiens (Human)) (UniProt P35222); assay: NanoBRET, Bcat-Halo/TCF4-Luc in HEK293 cells; peptide 20 uM; replicate 2; competitor TCF4-Luc

B1: I-797 (peptide)
peptide: Ac-[αAllylPro]F[tBuAla][B5]DDAADN[PyrS2][3Thi][Bta]Q-NH2
modifications: staple 1-4, 4-11
- % Inhibition [1]: -21.7%
- NanoBRET donor emission 450 BP (raw reading) [2]: 40100
- NanoBRET donor emission 450 BP (raw reading) [3]: 47500
- NanoBRET donor emission 450 BP (raw reading) [4]: 29900
- NanoBRET donor emission 450 BP (raw reading) [5]: 58500
- % Inhibition [6]: -11.7%
- NanoBRET donor emission 450 BP (raw reading) [7]: 21800
- NanoBRET donor emission 450 BP (raw reading) [8]: 22700
- % Inhibition [9]: -24.8%
- Acceptor 600 LP emission [10]: 510 and 420 and 630
- % Inhibition [11]: -16.9%
- % Inhibition [12]: -1.1%
- NanoBRET donor emission 450 BP (raw reading) [13]: 40400
- NanoBRET donor emission 450 BP (raw reading) [14]: 34500
- NanoBRET donor emission 450 BP (raw reading) [15]: 58500
- Acceptor 600 LP emission [16]: 460 and 220 and 510
- NanoBRET donor emission 450 BP (raw reading) [17]: 35700
- Acceptor 600 LP emission [18]: 790 and 350 and 470
- NanoBRET donor emission 450 BP (raw reading) [19]: 34100
- NanoBRET donor emission 450 BP (raw reading) [20]: 38800
- NanoBRET donor emission 450 BP (raw reading) [21]: 55900
- Acceptor 600 LP emission [22]: 860 and 660 and 640
- % Inhibition [23]: 26.5%
- % Inhibition [24]: -0.3%
